A protein production outcome set (Wang et al. 2014)

Test: label from the status in PepcDB records
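Also: failed if final PepcDB status was selected cloned or expressed and not failed if soluble or beyond.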

Sequence	protein production
MKDSVDCPSILPTDRTSVLSETSTLVGSSSHVYSRHAPMNSYHNSMNSNIYHSPKASSPLVSYKTSSPVLLKRATAPVLPSFKPKEQRYNKPQGCSLITAVELGKIIETLPDEKVLLLDVRPFTEHAKSIITNSIHVCLPSTLLRRKNFTFSKLLDNLTPSEQSVLKSKLAIDNLRIIIYDSTANQTESSVSLPCYGIASKLIEFDTNVKKTVSILMCGFPQFKILFPDHINTNTFNSDCISSAEPKSPKTNLMNSLHNTAPHMTATTPLSSPQMNLKLKVPDDSRSDHSNFSSSPSPRNVLSDSPMSSSSPISALFKFQLPAPQTNINQMFKFSQNEEIMGLETYLSAVNIKEEHERWYNNDSAKKSLQNFQFPKNQNSLEKDTNKDKLGFQIRYENLSKNYEKEVIDSVIPEWFQHLMSIPKIELVSQFQKLDFLEKRRLNHSVSFRKKENSFILEKPSSYPEQLTSTSSSTIMPPKFPDVNKVQKRSHSQPIFTQYSKYKSMLSLESDSDSESDDVIISSGVELGAKNRYKDIFPYEHSRVILKKGLQSSKGIKHSHSTSDGGILDNYINANYLSLPRFSVEQNSSFQTTTTTTRRVRYIATQAPMPSTVHDFYTCILNNGVPLVLSLTNDFENGIEKCYRYWQEGNYNGIHVKLLEKKILKMPSTTSMRKNTMGTQNSSLYSAGVQGNSSNYSTDNDNDNDNNNNNNNNSNIPVTAAACDDDDDDDDDAILIRQILLTYHDQEKPYELLQIQVKNWPDLGTLLNPISILQAINVKNHIIDTLFARNYYQNDQLPTILVHCSAGCGRTGTLCTIDSILSNFEMFEMLQKEFVKLKYPAKLFDPISWTINIFRKERISMVQNINQFIFIYDCLLFYFRLRLDDITERTDGDGSNKDNISLSALIEQIEKLEILQTFVDDKLKELPQ	failed
MKDVLAEYASRIVSAEEAVKHIKNGERVALSHAAGVPQSCVDALVQQADLFQNVEIYHMLCLGEGKYMAPEMAPHFRHITNFVGGNSRKAVEENRADFIPVFFYEVPSMIRKDILHIDVAIVQLSMPDENGYCSFGVSCDYSKPAAESAHLVIGEINRQMPYVHGDNLIHISKLDYIVMADYPIYSLAKPKIGEVEEAIGRNCAELIEDGATLQLGIGAIPDAALLFLKDKKDLGIHTEMFSDGVVELVRSGVITGKKKTLHPGKMVATFLMGSEDVYHFIDKNPDVELYPVDYVNDPRVIAQNDNMVSINSCIEIDLMGQVVSECIGSKQFSGTGGQVDYVRGAAWSKNGKSIMAIPSTAKNGTASRIVPIIAEGAAVTTLRNEVDYVVTEYGIAQLKGKSLRQRAEALIAIAHPDFREELTKHLRKRFG	not failed
MKEDIVSGTVKRVERHGIIVEVVAGKLDALIPRDQMIPRENFRSGDRIRALFLRVEEIGNTGRKQVILSRTSGLEHHHHHH	not failed
MKEDKKLVKQARQNFRSNLKSARMHYRKEVRTLKQTVPKKGRFRKSAKNSLFQEKKTELKGNLLSSQKEAEEKFIKEITYVSPRLLKAKEIKNYRLPQAQERLRTARKHLSEVKLSEKQQVVNPKFTFQKENPSLKSRFQFHQEKSFDRLSAEKDVSSAKREVKQLKKVQKTKKNSTKVKAGLGLAASESLDLIAQEDDLDGLRTMKDTSLKARRYGRFTYQAGKVAVKSGQTGVRFTKTKFSHGKERFQNFKKGKGFTRQKPLKPRRRYQTFLNHVRKQSVAGFKGIVQAIKGSMTFFSVLAGNPLTWIVSGILLILLLMMSFFMSVSGSSVIQQDEIELSKSYTHMTWEDAEHTRTNDKGITFYTKIDEVMVYMNHQYQDYKLDDFIETSGTTYKEFLSQLWSDLNGGDSIKSMSDLYKEPAYKLSDEDQEELNELTEEGNYLALQELDNPFQGQTDEDSLSMTYRYGYEVIDEKPTLHHHIILEAKEGQVIVAPMDGKVSLDGENVVLTSGKGVNKTKLTLFGIHSGRVSENQQVLAGDIIGQTKDGTGLKVTYQKVDDDTDKLVYVNPAFYFPKVIQVQTTILPTIGQFGGDEFERAKAIYDYLKSKGATNQAIAAILGNWSVESSINPKRAEGDYLSPPVGATDSSWDDEGWLTLNGPTIYNGRYPNILKRGLGLGQWTDTADGSRRHTLLLEYAKGKHQKWYDLGLQLDFMLYGDSPYYTNWLKDFFKNSGSPASLAQLFLIYWEGNSGDKLLERQTRASEWYYQIEKGFSQPNGGTAQSDPKALEAVREDLFENSIPGGGDGMGYAYGQCTWGVAARINQLGLKLKGKNGEKIPIISTMGNGQDWVRTAASLGGETGTSPQEGAILSFAGGGHGTPTEYGHVAFVEKVYPDGSFLISETNYNGNPNYTFRKLSGVDSSLSFAYTTK	failed
MKEFVHDYLAASVENEEEGGRMRWYPWHSAEYRFNHILNVVDIATKIARKEGANVDVTRVAALFHDIAKLEAEQDLHAEAGARIAREYLRAHGDYPESFIEQVCSAVEVHSYQGSLDDLPLEVQCLIEADILDKVGANGTALMLLRMGYESRTHMDAAEMVDRVIERGEDARERVQSDTAESLVHQRLKRTRWFQEWLTMEVAEMAVEDDLDDVATGMGDSLEHHHHHH	not failed
MKEIVERVKTKTKIPVYERSVENVLSAVLASDDIWRIVDLSEEPLPLVVAILESLNELGYVTFEDGVKLTEKGEELVAEYGIGKRYDFTCPHCQGKTVDLQAFADLLEQFREIVKDRPEPLHEFDQAYVTPETTVARVILMHTRGDLENKDIFVLGDDDLTSIALMLSGLPKRIAVLDIDERLTKFIEKAANEIGYEDIEIFTFDLRKPLPDYALHKFDTFITDPPETLEAIRAFVGRGIATLKGPRCAGYFGITRRESSLDKWREIQKLLLNEFNVVITDIIRNFNEYVNWGYAEETRAWKLIPIKKLPEYNWYKSYMFRIETLEGSRGYEDEIPEEDIYNDEESSTT	not failed
MKEKVVLAYSGGLDTSVILKWLCEKGFDVIAYVANVGQKDDFVAIKEKALKTGASKVYVEDLRREFVTDYIFTALLGNAMYEGRYLLGTAIARPLIAKRQVEIAEKEGAQYVAHGATGKGNDQVRFELTYAALNPNLKVISPWKDPEFLAKFKGRTDLINYAMEKGIPIKVSKKRPYSEDENLMHISHEAGKLEDPAHIPDEDVFTWTVSPKDAPDEETLLEIHFENGIPVKVVNLKDGTEKTDPLELFEYLNEVGAKNGVGRLDMVENRFIGIKSRGVYETPGATILWIAHRDLEGITMDKEVMHLRDMLAPKFAELIYNGFWFSPEMEFLLAAFRKAQENVTGKVTVSIYKGNVMPVARYSPYSLYNPELSSMDVEGGFDATDSKGFINIHALRLKVHQLVKKGYQR	not failed
MKENDGAPLKEGETASKYSVIINMILVVIKGFTGYLSGNIALIADAIHSFADVFSSAAVFIGLKLSQRKPDELFPYGYHRIETLVSLLVSVLIIITGLEITWDSIIYILNPASEVSMATASLAVSLISIGVSYAIAFYKVRVGRRIGSTALLNDGKHSYVDVISSILVFLGILGEYMGLHGFQGIAGVIISVVIIYIGIRLAKYDVLTLLDACIDRDSIEVIKKTVLSVPGVEGVHDIRIRRSGPYLFGELHIELERGLPVDKIEGIISQINSRVKEVLPSIDHLTVQPETVKREEVVVAVPLADNHGMESRISTHFGRADSFLIARTRRGEILDYRIIENSGKSLRTKRGIRAAELLKDENIDVLVIEKLSEGPELLFSDYLLGKVPPEGSSLEEVIKNASMKFSE	failed
MKENKLDYIPEPMDLSLVDLPESLIQLSERIAENVHEVWAKARIDEGWTYGEKRDDIHKKHPCLVPYDELPEEEKEYDRNTAMNTIKMVKKLGFRIEKED	not failed
MKEVSAAPKITNVKAAILGFQHLLAMYSGDVLVPLLIGAALHFSQEQLTYLVSIDIFMCGIATFLQLKRTPLTGIGLPVVLGCAVQAVNPLIQIGKTYGLGTMYGSIIGAGIFIFLIAGLFSKIKNLFPPVVTGSLITIIGFTLIPVAFQNLGGGDTSAKDFGNLQALGIGFLTIAIILLISVFARGFMKSVSILIGILVGTLIAGAMGMVSLKPVAEASWFHLPTLFYFGTPHFEWSSILTMILVSLTTMVESTGVFFALGDITGRKIEGDDLKRGYRAEGIAVILGGLFSTFPYSTFSENVGVVQLSGVKTRKPIYFSAAFLVVLGLLPKIGALATIIPDPVLGGAMVVMFGIVGIQGIRMLAQVDFRNNNNLLVAAVSIGLGLGVTVQTNIFQFLPGALQIMLSNGVVVGSVAAVGLNLLFNRHAAENTVDDESVGLNETEQP	failed
MKFIIEALKRVRERRPLVHNITNFVVMNTTANALLALGASPVMAHAEEELEEMIRLADAVVINIGTLDSGWRRSMVKATEIANELGKPIVLDPVGAGATKFRTRVSLEILSRGVDVLKGNFGEISALLGEEGKTRGVDSLEYGEEEAKKLTMNAAREFNTTVAVTGAVDYVSDGRRTFAVYNGHELLGRVTGTGCMVAALTGAFVAVTEPLKATTSALVTFGIAAEKAYEEAKYPGSFHVKLYDWLYRINENVIRTYAKVREVEL	not failed
MKFKIHSDITYQVMSPTTFIFNVHALRTESQHILDESLIVTPPIEIEEFSYNSGTSRFVRLKATENTTFSMSYTATVDTQYKVIDQRQELETVPVVDLDGDIIPFLFPSRYCQSDKLQKLAYKEFGKIENVYSKVLAITDWIYNNVEYISGSTNSQTSAFDTITERAGVCRDFAHLGIALCRALSIPARYFTGYAFKLNPPDFHACFEAYIGGNWIIFDATRLVPLNGLVKIATGRDAADAAVASIFGNASSTNMHVECASLDTDFTPFWYDKNSLKGLSFQ	not failed
MKFLPYIFLLCCGLWSTISFADEDYIEYRGISSNNRVTLDPLRLSNKELRWLASKKNLVIAVHKSQTATLLHTDSQQRVRGINADYLNLLKRALNIKLTLREYADHQKAMDALAEGEVDIVLSHLVTSPPLNNDIAATKPLIITFPALVTTFHDSMRPLTSPKPVNIARVANYPPDEVIHQSFPKATIISFTNLYQALASVSAGHNDYFIGSNIITSSMISRYFTHSLNVVKYYNSPRQYNPLLTRKESVILNEVLNRFVDALTNEVRYEVSQNRLDTGNLAFLNKPLELTEHEKQWIKQHPNLKVLENPYSPPYSMTDENGSVRGVMGDILNIITLQTGLNFSPITVSHNIHAGTQLSPGGWDIIPGAIYSEDRENNVLFAEAFITTPYVFVMQKAPDSEQTLKKGMKVAIPYYYELHFELKEMYPEVEWIQVDNASAAFHKVKEGELDALVATQLNSRYMIDHYYPNELYHFLIPGVPNASLSFAFPRGEPELKDIINKALNAIPPSEVLRLTEKWIKMPNVTIDTWDLYSEQFYIVTTLSVLLVGSSLLWGFYLLRSVRRRKVIQGDLENQISFRKALSDSLPNPTYVVNWQGNVISHNSAFEHYFTADYYKNAMLPLENSDSPFKDVFSNAHEVTAETKENRTIYTQVFEIDNGIEKRCINHWHTLCNLPASDNAVYICGWQDITETRDLINALEVEKNKAIKATVAKSQFLATMSHEIRTPISSIMGFLELLSDSGLSKEQRVEAISLAYATKQSVLGLIGEILDVDKIESGNYQLQPQWVDIPTLVQNTCHSFGAIAASKSIALSCSSTFPEHYLVKIDPQAFKQVLSNLLSNALKFTTEGAVKITTSLGHIDDNHAVIKMTIMDSGSGLLQEEQQQLFKRYSQTSAGRQQTGSGLGLMICKELIKNMQGDLSLESHPGIGTTFTITIPVEISQQVATVEAKAEQPITLPEKLSILIADDHPTNRLLLKRQLNLLGYDVDEATDGVQALHKVSMQHYDLLITDVNMPNMDGFELTRKLREQNSSLPIWGLTANAQANEHEKGLSCGMNLCLFKPLTLDVLKTHLSQLYQVAHIAPQYRHLDIEALKNNTANDLQLMQEILMTFQHETHKDLPAAFQALEAGDNRTFHQCIHRIHGAANILNLQKLINISHQLEITPVSDDSKPEILQLLNSVKEHIAELDQEIAVFCQKND	failed
MKFLTVSDDMNFLRQVNTLVAGKGDMDSVIIGEGDAKGLGSKVLYRAKKGTPFDAVSEGILKIAGNYDYIAIGSTEVGREIAGYLSFKTGFYTATEIFSLEFNGQKAHTKRFFYGGKTVIEEESDARILTVAPGVIEAKDLGTTPEIRDLEIGQSRIKITKFVSKAGGSVRLEDAKVIVSVGRGIGSKENIAKIEPLAKALNGEIAGSRPVCMDYGWLSEDRQVGLSGKKVSPKVYIALGISGQIQHIAGMRNSKTVIAINKDKNAPIFQECDYGIVGDLFTVVPKILEQLKQ	failed
